# Experiment: soluble on expression in E. coli; label from the status in PepcDB or PDB records
row,Sequence,soluble on expression in E. coli
1,MFKKLLHSLFAGLTFMAAVAAVPAHAQEADAQTTVKTAVDDVLATIKGDSDLRSGNMQKVFQLVDQKIVPRADFKRTTQIAMGRFWSQATPEQQQQIQDGFKTLLVRTYAGALANVRNQTVSYKPFRAAADDTDVVVRSTVNNNGEPVALDYRMEKSANGWKVYDINISGLWLSETYKNQFAEVISKRGGVSGLVQFLDERNAQLAKGPAKLEHHHHHH,soluble
2,MQEISFRDDILPLKDKLFRLALRITFDRAEAEDVVQDTMIRVWNKREEWTQFGSIEAYCLTVAKNLAIDRSQKKEAQNVELTPEMEEESEISGPYDQ,not soluble
3,MAHHHHHHMLRRTQRWLLLNVSGESPSFRSKPVRNLQMDVQMSPYKEQFKDYWSTPVPWADREYGEKPKLGAPIPTRRAATAIVVGKNKHVAVDKVERGEDNDYKVLMMFREGKNRFVRDQFIFPSFPISLEDSSEDWEKILRRRGVKTAWNDLHHRLCAMRALFAQMNILLVPKEGGGLVEVEGPPGPKKWHLLVHSQPKAMKNLVDVLELPMETCLSQLLPFRCITTPTTETFRFDNLVYLVPFEKIPDVRFTISTVGEKLVWVSPMEAMARFNAGIMNMPTPNIIAISELNNECPIFADVTKRKPHDDYRSILPELYRHSQTKVATVLLPGDLMHPNTTEEDKAERYIRRFVYEKDYPFGIRAVFEERPATTEEMNEPLIQEAPKLLEEANEMDMVYADTPYPKREKQPGEIGRTRFPVPSYSFQEGAENEEGVIPVRNRNIESVGDLYSQTN,not soluble
4,MAHHHHHHMAQRVHYRRHNHYNTKSNKVRPVRTPGGKLTIHVVKKKAGKPKCADCKTAIQGVKALRPADNYRARRKNRTVARAYGGSICARCIRERIMRAFLFEEQKCVRQVLKEKKKQEKKVKKVKKEKKKVNAKEVKKTATDNKKAKKVADKKKGK,not soluble
5,MPKNTKKSQGNKKLEMTNKQFDDLLKEMGGLPEGMNLDPELLAVLRQATNAEFNKVAKEKYGDVPEGSDDDEEQQTSEQNKEQQQSSSSKST,not soluble
6,MISPSKKRTILSSKNINQKPRAVVKGNELRSPSKRRSQIDTDYALRRSPIKTIQISKAAQFMLYEETAEERNIAVHRHNEIYNNNNSVSNENNPSQVKENLSPAKICPYERAFLREGGRIALKDLSVDEFKGYIQDPLTDETIPLTLPLGDKKISLPSFITPPRNSKISIFFTSKHQGQNPETKISRSTDDVSEKKVVRKLSFHVYEDE,not soluble
7,MLLQELLGIDEDIYLIEESYTSQRNPELTLQYLNRFLNFPDIENIRIIRVRQAGHTTGLLFFNPADEDVPVDFWSVFTGAFAQPALKEKFETLADSLLNLTSPEKDIELLHETWFNAVNEYYSLMLVNRNLCTSCSVKPESYGNVFSENRIKRVAEILELLRKKGYYPEGRLLEVCCGNGMSTLALYRSGLDPLAIEINKCTICQGLEQGVLNPQRVMVMDAAAVSRYFEPGSFDAVMGFMLGLVYEFNKGLWVRIVREAVSVAADGAVLLFTVSSKPEIEILADALFRAGVDGEIVDNTDSEGAYDQWLFVGRRQKNTST,not soluble
8,SDRFTSQSSFVVRSPKSQSSLNGLGAILQGTGFARAQDDIYTVGEYMRSRSSLDELRKILPVREFYETKGDAFSRFNGFGFRGEEEAFYQYYKNQ,not soluble
9,MTLNIYTEEWAPISFSVDGKPDGLAVQVVQEIQKRIDNQDPIKVVPWARGWKIITEQPNTVLFTMTRTAERERMFSLIGPVAVGTTNFYALKNSNLKINLEHHHHHH,not soluble
10,MGAIEDVYADLDTDVSIEEFREAVESKVEQMGGLADEETAAMLIAHEIDDGEVNGVADIDSEMDEVKFIAKVTRVGDVRTFDREDADDDDAAAEGRVVNVTVADETDDVRVSLWDEQATAAADDLAPGDVLRIKGRPTDGYNGLEVSADEVELDADEQIDVQIQDEYDAADLSLGVSDVTLVGEVLDTEAVRTFDRDDGSEGRVSNLVVGDETGRVRVTLWDDQADTATDLDAGAVVEIVDGYVREREGSLELHVGDTGAVTPVPDADVSFVPDTTSIDSLEQDDTADIAGVVRSVDPTRTFDRDDGSEGQVRNVRLQDDTGDIRVALWGEKADLDIGPGDEVAALDVEIQDGWQDDIEASAGWQASVIPLSDSTQDDAAAGSDGPDRGLAAFGADSDDEPAATDDAADTQTPHSDTPVEFTGVVVQAQDPLILDDGEETMSVTTDADVTLGQEVTVRGSLDDGRLHADDVTESLEHHHHHH,not soluble
11,MGSDKIHHHHHHMLSLRHSCPRRALKVPNPFVEEAGPQPPKVLKAPVEIQANLRLLQDSRDSLLITFADRNQRFQSFLVDIDRDRGMVALDELIPNTGERFLQNGEAFRVEAFHEGVRIAWECERPVQFGEHDGVPCYWAALPAEVLYHQRRNAYRASIKQSQPIAAEIAGEKLRAPLSGQLLDISATGAKLRFAGNVAERLHPGEIYEDFSAQLPQGAISSAIELRHVRFDEKLDATFAGVRFSEMSGLAQRQVDRFVYQLQREARRFEKDELF,not soluble
12,MVKVYAPASSANMSVGFDVLGAAVTPVDGALLGDVVTVEAAETFSLNNLGRFADKLPSEPRENIVYQCWERFCQELGKQIPVAMTLEKNMPIGSGLGSSACSVVAALMAMNEHCGKPLNDTRLLALMGELEGRISGSIHYDNVAPCFLGGMQLMIEENDIISQQVPGFDEWLWVLAYPGIKVSTAEARAILPAQYRRQDCIAHGRHLAGFIHACYSRQPELAAKLMKDVIAEPYRERLLPGFRQARQAVAEIGAVASGISGSGPTLFALCDKPETAQRVADWLGKNYLQNQEGFVHICRLDTAGARVLEN,soluble
13,MVAQARRQGCGERLTTATAVATPATAEQGETTMETVEEFLAHSIKLEQEAALRFGQLADAMDSCGNKEVSKLFRQLADYSRMHQADAQARAGFRDIPQMEPGDFKWPGLESPEAAAIWGTDPFIGRDLALQIALEAETGAFDWYKNVLDTTDNPEIKMLAKEFVEEESGHVAELHRWIALHKAGKPLPMEIVPF,not soluble
14,MQFLSIGVNDDADSLKEYLINELARNNKKNINYLVRDVADSEGSTSIICSLADNDAPSDMNSHLYKELVLNVSNALATFIIDKYEEKLIYRIINSNYCYFTQAERKEIQRLTLAIIKNEERNLLNSFFQIRRKNIIIKRLLEYFESSNTVILDGFVNFRLKDYMKDLEEIVEKAVDDFLMEREYREFIRLLRYFVDIQEPKFNAVHIIAGYDNKYVLLDENKNEITNECLQEFVNDIPEGEINYDDLLVSSLITMAPRKLVIHGAKSFRNKELLETIKNVFWGKVVICSECELCMVNMVRSENKSQI,not soluble
15,MKVIAVNGGPRKQWNTATLLHKALEGAQSAGAETDLFHLYDLNYKGCISCFGCKRKNSSRIGHCVLKDELTPLLEEVLKCDALLLGSPIYFGNVTGAMRSFLERLFFSLLSYNEGQRTVFPRKVASGFIYTMNVPEDFLPQLGYEAVFKANARSLELLNGPSEYLLATDTYQFDNYSNYEASRFNEQHKAQVRQERFPQDCRQAFDLGAR,not soluble
16,MRTILIDWFSDAVREYIFRNEAVHLAVSLVDRALPMFNINKMRFQLVGITSMRIAVKYEEIFPPILSNTRHSFDGAILYWKVRLHRRNAHTILDRIMLCTENELYKKDAECCQTPRAVADRFSFSTLPPI,not soluble
17,MGSDKIHHHHHHMNNLYPYGAPDSNLYARKQEEYDQQIAEAILAGIKREATAIELYRRLADEAPSEQHQHDIRQALENKQASLTQFTNAYRILTGQQPQLEVDDVSFYRFHEGLQKAYEIEVEGYEEYERSSALTENPHVQHAFWTALNTEYENTTRLYRSLHEEADHRVTDHGPRPFVVNIEDETKRNRAFRRALWTGDHLQVTLMSIQVGEDIGLEIHPHLDQFLRVEEGRGLVQMGHRQDNLHFQEEVFDDYAILIPAGTWHNVRNTGNRPLKLYSIYAPPQHPHGTVHETKAIAMAAEEHHHL,not soluble
18,MLNARINQSIKCNQVRIHNVADKITWAELTKIEQLLKIIPQWEKLIKIQTTSKIFNSTSWVASWLETFWQKNWQLNVLIAWCDDELIAIVPLYYQQNNSILPMKVLYPLGQGEAEAQEISTEYTDILINEKFQEHLLPKIQQWILNLKADQLHWHALLHNSSTRNILADYEQTKSNEATRYIVNGLNWSLENLSKNMRSRYRRGLNQLDKLNATIDWVEQSDFDQYWQLMKKLHQKRWQGKNAKGAFCSDEFNQFHAKFREKSPKNIAMSAIWVNDTPIAIHYYFSDATTLYFYQSGWNESEYSHLSPGLILHLWTIENNNKPYYDFMMGKKKDSYKAKFATLQQPMYNITLTFSPIKLLFYSVFEKIKVKYLSA,not soluble

# From the DeepSol protein solubility set
